B1: Hairpin Ribozyme (parent)
chain: GUCCUCUUUCACGUGCGCGUGAAAGAGAGAAGUGAACCAGAGAAACACACGUUGUGGUAUAUUACCUGGUA

Variants of: B1
Assay: self-cleavage, relative activity (ratio to wild type); higher = more cleavage; co-transcriptional
Variant G32C G54C has a self-cleavage of 0.16.
With U33A G51C the self-cleavage was 0.157.
Variant U33A A45G has a self-cleavage of 0.127.
In the case of U33A A45C, the self-cleavage is reported as 0.231.
Variant G32U A36U has a self-cleavage of 0.101.
Variant G32U A36G has a self-cleavage of 0.0896.
G32U A61C gave a self-cleavage of 0.157.
G32A A49G gave a self-cleavage of 0.366.
Variant G32U U55G has a self-cleavage of 0.132.
G32U U55C gave a self-cleavage of 0.165.
Work on G32U U60G yielded a self-cleavage of 0.0848.
G32C G51U showed a self-cleavage of 0.154.
G32A U62G showed a self-cleavage of 0.0972.
G32C U52A gave a self-cleavage of 0.0962.
Variant A31U C65A has a self-cleavage of 0.127.
For G32C C46A, the self-cleavage was 0.109.
Work on G32U G68U yielded a self-cleavage of 0.114.
For G32U G68A, the self-cleavage was 0.0877.
G32A G69A showed a self-cleavage of 0.0516.
With G32U G56U the self-cleavage was 0.145.
G32A U52G showed a self-cleavage of 0.141.
G32A U52A gave a self-cleavage of 0.24.
G32U A35C showed a self-cleavage of 0.107.
Variant G32A U33A has a self-cleavage of 0.139.
Work on G32U G54C yielded a self-cleavage of 0.1.
With G32A C66A the self-cleavage was 0.147.
G32A C66G gave a self-cleavage of 0.144.
In the case of A31U G54U, the self-cleavage is reported as 0.0633.
With A31U G54A the self-cleavage was 0.151.
For G32A C37G, the self-cleavage was 0.0907.
G32A U67C showed a self-cleavage of 0.131.
Work on G32A U67A yielded a self-cleavage of 0.114.
With G32U A59G the self-cleavage was 0.181.
Work on G32C G68A yielded a self-cleavage of 0.097.
G32C U33A gave a self-cleavage of 0.168.
Work on G32U C50G yielded a self-cleavage of 0.162.
In the case of G32U C50U, the self-cleavage is reported as 0.119.
Variant G32U U70A has a self-cleavage of 0.111.
Work on U33A A39G yielded a self-cleavage of 0.122.
Work on U33A A39U yielded a self-cleavage of 0.0937.
Work on A31U C50G yielded a self-cleavage of 0.152.
Variant A31U C50U has a self-cleavage of 0.24.
Variant A31U C50A has a self-cleavage of 0.113.
With G32A G51A the self-cleavage was 0.156.
In the case of G32U G51C, the self-cleavage is reported as 0.148.
With G32C U58G the self-cleavage was 0.0601.
Variant G32C A44U has a self-cleavage of 0.22.
In the case of G32C A44C, the self-cleavage is reported as 0.108.
Variant G32U A41U has a self-cleavage of 0.0937.
With G32U A41C the self-cleavage was 0.105.
For A31U U67C, the self-cleavage was 0.0741.
With U33A A44G the self-cleavage was 0.16.
U33A A44C gave a self-cleavage of 0.205.
In the case of U33A G57A, the self-cleavage is reported as 0.137.
Work on U33A G57C yielded a self-cleavage of 0.157.
With G32A the self-cleavage was 0.153.
In the case of G32U, the self-cleavage is reported as 0.13.
For G32C, the self-cleavage was 0.127.
G32C G56U gave a self-cleavage of 0.156.
In the case of A31U G56C, the self-cleavage is reported as 0.137.
For A31U G51A, the self-cleavage was 0.
With G32C C37A the self-cleavage was 0.125.
In the case of A31U C46A, the self-cleavage is reported as 0.236.
A31U C46U gave a self-cleavage of 0.205.
Work on G32C G34A yielded a self-cleavage of 0.132.
G32A G57U gave a self-cleavage of 0.118.
Work on U33A C66A yielded a self-cleavage of 0.0709.
Variant U33A C66U has a self-cleavage of 0.151.
For G32A G56U, the self-cleavage was 0.221.
Work on G32A G56A yielded a self-cleavage of 0.179.
With U33A A59U the self-cleavage was 0.177.
U33A A59C showed a self-cleavage of 0.143.
G32U G42U showed a self-cleavage of 0.107.
For G32U G42C, the self-cleavage was 0.127.
Work on G32A A71G yielded a self-cleavage of 0.183.
Work on G32C A47C yielded a self-cleavage of 0.161.
G32A A47G gave a self-cleavage of 0.133.
G32A A47U gave a self-cleavage of 0.125.
Work on G32C G40C yielded a self-cleavage of 0.109.
G32C A41G gave a self-cleavage of 0.128.
In the case of G32U U52A, the self-cleavage is reported as 0.155.
Work on G32U U52G yielded a self-cleavage of 0.0995.
A31U U60G showed a self-cleavage of 0.115.
For G32A C38U, the self-cleavage was 0.0584.
Variant A31U C37U has a self-cleavage of 0.187.
With G32C U60A the self-cleavage was 0.203.
G32C U60G gave a self-cleavage of 0.112.
G32A A64U gave a self-cleavage of 0.204.
Variant A31U G68U has a self-cleavage of 0.206.
U33A A47C gave a self-cleavage of 0.0723.
In the case of G32A A45G, the self-cleavage is reported as 0.117.
Work on G32U C65G yielded a self-cleavage of 0.104.
Work on G32U C65U yielded a self-cleavage of 0.115.
G32U C65A showed a self-cleavage of 0.064.
In the case of G32A G42U, the self-cleavage is reported as 0.186.
For G32U C37G, the self-cleavage was 0.0126.
For G32A C65U, the self-cleavage was 0.174.
With A31U G69U the self-cleavage was 0.105.
For G32C A59G, the self-cleavage was 0.15.
Variant G32C A59U has a self-cleavage of 0.103.
In the case of A31U U33A, the self-cleavage is reported as 0.0513.
With G32A A61C the self-cleavage was 0.0657.
For G32A A61G, the self-cleavage was 0.153.
Work on G32C C65A yielded a self-cleavage of 0.0926.
G32U C46U gave a self-cleavage of 0.276.
G32A U63G gave a self-cleavage of 0.126.
In the case of U33A C48A, the self-cleavage is reported as 0.0899.
For G32U A71U, the self-cleavage was 0.131.
With U33A C65G the self-cleavage was 0.225.
For U33A C65A, the self-cleavage was 0.225.
With G32A C48U the self-cleavage was 0.154.
Work on G32C G69U yielded a self-cleavage of 0.203.
For G32U G34A, the self-cleavage was 0.133.
With G32C G42C the self-cleavage was 0.137.
In the case of G32C G42A, the self-cleavage is reported as 0.156.
In the case of G32C G42U, the self-cleavage is reported as 0.213.
Work on G32C A39G yielded a self-cleavage of 0.111.
G32A G34U gave a self-cleavage of 0.798.
In the case of U33A A36C, the self-cleavage is reported as 0.0569.
Variant A31U U58A has a self-cleavage of 0.026.
In the case of A31U G34C, the self-cleavage is reported as 0.
For A31U G32U, the self-cleavage was 0.125.
Work on G32U U62A yielded a self-cleavage of 0.052.
G32U U62C gave a self-cleavage of 0.0761.
G32U U58A showed a self-cleavage of 0.0967.
G32U A47C gave a self-cleavage of 0.167.
G32C A49U showed a self-cleavage of 0.0382.
Work on G32C A49G yielded a self-cleavage of 0.189.
Variant G32A U55G has a self-cleavage of 0.15.
G32A U55C gave a self-cleavage of 0.161.
For A31U C38A, the self-cleavage was 0.0669.
U33A C46U showed a self-cleavage of 0.0735.
Variant U33A G42C has a self-cleavage of 0.14.
In the case of G32A G68U, the self-cleavage is reported as 0.0821.
For G32A G68C, the self-cleavage was 0.1.
With G32A G68A the self-cleavage was 0.193.
U33A A71C gave a self-cleavage of 0.389.
U33A A71U gave a self-cleavage of 0.137.
U33A A41U showed a self-cleavage of 0.111.
Variant G32C U67A has a self-cleavage of 0.134.
With G32C U67G the self-cleavage was 0.148.
With G32A U70G the self-cleavage was 0.165.
Work on G32U G69C yielded a self-cleavage of 0.136.
G32C A61C gave a self-cleavage of 0.222.
U33A A49G gave a self-cleavage of 0.0427.
In the case of U33A G68U, the self-cleavage is reported as 0.162.
With U33A G56C the self-cleavage was 0.11.
Variant G32A G40U has a self-cleavage of 0.0775.
For G32A G40A, the self-cleavage was 0.136.
G32C U70G showed a self-cleavage of 0.0915.
Work on G32A A35U yielded a self-cleavage of 0.153.
For G32A A35G, the self-cleavage was 0.142.
G32A U60C gave a self-cleavage of 0.256.
Variant G32A U60G has a self-cleavage of 0.197.
Work on G32C A35U yielded a self-cleavage of 0.132.
G32C C66U gave a self-cleavage of 0.04.
G32C A36C gave a self-cleavage of 0.159.
G32U C66A gave a self-cleavage of 0.229.
Variant G32U G57U has a self-cleavage of 0.162.
In the case of G32C C38A, the self-cleavage is reported as 0.061.
For A31U C66G, the self-cleavage was 0.0934.
G32A G54C showed a self-cleavage of 0.117.
For A31U G42U, the self-cleavage was 0.0854.
A31U U55A gave a self-cleavage of 0.0885.
Work on U33A G54A yielded a self-cleavage of 0.213.
U33A G54U gave a self-cleavage of 0.186.
G32A C50U gave a self-cleavage of 0.101.
